Data as given in the nanobody polyreactivity screen of Harvey et al. (2022).

Experiment: yeast display, Sf9 membrane polyspecificity reagent, FACS + sequencing; frameworks hold sequencing errors
Outline: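 A synthetic nanobody library was expressed on Saccharomyces cerevisiae BJ5465 by galactose induction for 36–48 hours. The library was stained for 1 hour at 4 °C with 10% biotinylated, detergent-solubilized Sf9 membrane reagent and enriched with streptavidin microbeads before FACS. Low and high (top ~1%) gates were set on anti-HA fluorescence for expression and streptavidin fluorescence for reagent binding, and each polyreactivity label reflects the gate of origin.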

Sequence	polyreactivity (PSR sort gate)
QVQLVESGGGLVQAGGSPRLSCAASGIIFQHNAMGWYRQAPGKERELVAAISSNGGRTFYADSVKGRFTISRDNAKNTVYLQMNSLKPEDTAVYYCAADRPAYGVGYWGQGTQVTVSS	high polyreactivity
QVQLVESGGGLVQAGGSPRLSCAASGSISNYYGMGWYRQAPRKERELVAAITWGGGRTNYADSVKGRFTISRDNAKNTVYLQMNSLKPEDTAVYYCAKVSVTHRYGAGGDYWGQGTQVTVSS	low polyreactivity
QVQLVESGGGLVQAGGSRLLSCAASGGTFSFYAMGWYRQAPAKEREFVAAITASDGSTYYADSLTGRFTISRDNAKNTVYLQMNSLKPEDTAVYYCAADAYGYKFNSWVQGTQVTVSS	low polyreactivity
QVQLVESGGGLVQAGGSRRIICAASGGTFYYYAMGWYRQAPGKERELVAAITWSGASTRYADSVKGRFTISRDNAKNTVYLQMNSLKPEDTAVYYCAARRVRPLVTYGYWGQGTQLTVSS	high polyreactivity
QVQLVESGGGLVQAGGSRRLICAASGSIFYTNAMGWYRPAPAKERELVARISFSDGTTNYADSVKGRFTISRDNAKNTVYVQMNSLKPEDTAVYYCATDLYGRPVRFDYWGQGTQVTVSS	low polyreactivity
QVQLVESGGGLVQAGGSRRLSCAAAGSTFGVIVMGWYREAPGKEREVVAAITKSGGSTYYADSVKGRFTISRDNAKNTVYLQMNSLKPEDTAVYFCIDAWGREYDYWGQGTQVHVSS	high polyreactivity
QVQLVESGGGLVQAGGSRRLSCAACGFIFEKNAMGWYRQAPGKERELVAAISGGGITNYADSVKGRFTISRDNEKKTVYLHMNSLKPQDTAVYYCAKTRRRLLTRYDYWGQGTQVTVSS	low polyreactivity
QVQLVESGGGLVQAGGSRRLSCAASGRIFLGYTMGWYRQAPGKERELVAAISKSGDSTYYADSVKGRFTISRDNAKNTVYLQMNSLKPEDTAVYYCAAKRYRVGYGYWGQGTQVTVSS	high polyreactivity
QVQLVESGGGLVQAGGSRRLSCAASGRTFWAYAMRCYRQAPGKERELVAAITASGTRTYYADSVKGRFTISRDNAMNTDYLQRNRLKPQDTAGYYCAAERIWWAHAYPTYVANDYWGQGTQGTVSS	high polyreactivity
QVQLVESGGGLVQAGGSRRLSCAASGSIFPQYAMGWYRQAPGKERELVAAITWSGSRTRYADSVKGRFTMSRDTAKNTGYLQMNSLKPEDTAVYDCAARFNGQTYYYWGQGTQVTLSS	high polyreactivity
QVQLVESGGGLVQAGGSRRLSCAASGSIFSQYAMGWYRQAPGKEREFVAAINWSGGRTRYADSVKGRFTISRDNAKNTVYLQMNSLKPEDTAVYYCAKVYSLYSYSGRYDYWGQGTQVTVSS	high polyreactivity
QVQLVESGGGLVQAGGSRRLSCAASGSTFRRYAMGWSRQAPWKERELVAAISGRGGSTSYADSVKGRFTISRDNAKNTVYLQMNSLKPEDTAVYYCNARGYPSRFKYYYWGEGTQVTVSS	high polyreactivity
QVQLVESGGGLVQAGGSRRLSCAASGSTFRYNTMGWYRQAPGKERDLVAAITGGGGSTYYADSVKGRFTISRDNAKNTVYLQMNSLKPEDTAVYYCAKRHWYDCYVSSYTTRYDYWGQGTQVTVSS	low polyreactivity
QVQLVESGGGLVQAGGSRRLSCAASGSTFRYYAMGWYRQAPGKERELVAAISKRGGSTYYADSVKGRFTISRDNAKNTVYLQMNSLKPEDTAVYYCAAYGSVGLEYWGQGTQVTVSS	high polyreactivity
QVQLVESGGGLVQAGGSRRLSCAASGSTFYGYAMGWYRQAPGKEREFVAAITTSGGSTYYADSVKGRFTISRDNAKNTVYLQMNSLKPEDTAVYYCDADAPSWYDRQYDYWGQGTQVTVSS	low polyreactivity
QVQLVESGGGLVQAGGSRRLSCAASGSTFYGYAMGWYRQAPGKERELVAAIRRIGGTTYADSVKGRFTLSRDNAKNTVYLQMNSLKPEDTAVYYCAAYGFSYRYRYYYWGQGTQVTVSS	high polyreactivity
QVQLVESGGGLVQAGGSRRLSCAASGSTFYPYSMGWYRQAPGKESELVAAITWSGGRTYYADSVKGRFTISRDNANNTVYLQMNSLKPEDTAVYYCAADRPDGWVDYWGQGTQVTVSS	low polyreactivity
QVQLVESGGGLVQAGGSRSLSCAASGFTFQGNVMGWYTQAPGKERELVAAISGGGGRTYYADYVKGRFTISRDNAKYTVYLQMNSLIPEDTAVYYCIVRLLGSNRAGVRCDYWGQGTQVTVSS	high polyreactivity
QVQLVESGGGLVQAGGSVRLSCAASGFTFWRYAMGWYRQAPGKEREFVAAITRSGVSTSNADSVKGRFTISRDNAKNTVYLQMNSLKPEDTAVYYCAALFYTSVPYPDYDYWGQGTQVTVSS	high polyreactivity
QVQLVESGGGLVQAGGSVRLSCAASGISFQYNALGWYRQAPGTERELVAGITWSGTSTYFADSVKGRFTISRDNAKNTVYLQLNSMKPEDTAVYYCAAVRGYRGYDYWGQGTQGTVSS	high polyreactivity
QVQLVESGGGLVQAGGSVRLSCAASGRIFGYYAMGWYRQAPGKERELVAAINWNVGSTYYADSVKGRFTISRDNAKNTVYLQMNSLKPEDTAVYYCAAVGRYSRLLGKYDYWGQGTQVTVSS	low polyreactivity
QVQLVESGGGLVQAGGSVRLSCAASGSIFGWYAMGWYRQGPGKEREWVATITDRGGRTYYADSVKGRFTISRDNAKNTVYLQMNSLKPEDTAVYYCAADDCPFEAEYDSWGQGTQVTVSS	low polyreactivity

Sequence	polyreactivity (PSR sort gate)
QVQLVESGGGLVQAGGSVRLSCAASGSTFLHYAMGWYRQPPGKERELVAAITDSGGNTYYADSVKCRFTISRDNAKNTVYLQMNSLKPEDTAVYYCAAEYIFHYYDIFDYWGQGTQVTVSS	high polyreactivity
QVQLVESGGGLVQAGGSVRLSFAASGSSIFGNFMGWYRQAPGKERELVAGITNRGGSTYFADSVKGRFTISRDNAKITVYLQMNSLKPEDTAVYYCAARKNHSGYGRGNYWGQGTQVTVSS	high polyreactivity
QVQLVESGGGLVQAGGTIRLSCAASGIIFRLNPMGWYRQAPGKERELVAAIRRRGGSTYYADSVKGRFTISRDNGKNNVYLQMYSVKPEETEVYHCAKDPHGSDFGYWGQGTHVTVSS	low polyreactivity
QVQLVESGGGLVQAGGTLRFSCAATGSIFDPYARGWYRQAPGKEREFVAAITYTGGDTHYADSVKGRFSISRDKAKNTVYLQLNSLKPEDSAVYYFAAVYYRGIQSYDYWGQGTQVTVSS	low polyreactivity
QVQLVESGGGLVQAGGTLRISCAASGRIFTIYAMGWYRQAPGKERELVATISSNVGSTYYADSVKGRFTISRDNAKNTVYLQMNSLKPEDTAVYYCAATRRAGFTTAKFDYWGQGTQVTVSS	high polyreactivity
QVQLVESGGGLVQAGGTLRISCAASGSIFYLYAMGWYRQAPGKERELVAGIRYRGGSTYYADSVKGRFTISRDNAKNTVYLQMNSLKPEDTAVYYCAAEYGDGRYWSYDYWGQGTQVTVSS	high polyreactivity
QVQLVESGGGLVQAGGTLRLSCAACGRTFPINAMAWYRQAPGKERELVASIRWTDGTTYYADSVKGRFTISRDNAKNTVYLQMNSLKPEDTAVYYCAADAEGSASKYDYWGQGTQVTVSS	low polyreactivity
QVQLVESGGGLVQAGGTLRLSCAASGFTFSSYTVGWYRQAPRKERELVASISSGGSTNYADSVKGRFTISRDNAKNTVYLQMNSLIPEDTAVFYCAAGTPCISFYDVCSGYDYWGQGTQVTVSS	low polyreactivity
QVQLVESGGGLVQAGGTLRLSCAASGLIFFFYAMGWYRQAPGKERELVAAISDDGVSTDYADSVKGRFTISRDNAKNTVYLQMNSLKPEDTAVYYCAAKTERVYPWFSFGYWGQGTQVTVSS	low polyreactivity
QVQLVESGGGLVQAGGTLRLSCAASGLIFGRNAMGWYRQAPGKEREFVATYADSVKGRFTISRYNAKNTVYLQMNSLKPEDTAVYYCATRFVWPSYGYYVQGRFDSWGQGTQVTVSS	low polyreactivity
QVQLVESGGGLVQAGGTLRLSCAASGRIFRENAMGWYRQAPGKERELVAAISSGGSTYYADSVKGRFTISRDNAKNTVYLQMNSLKPEDTAVYYCAADLSWSRVVFGDYDYWGQGTQVTVSS	low polyreactivity
QVQLVESGGGLVQAGGTLRLSCAASGRIFRYNGMGWYRQAPVKERELVAGINWIGGRTYYADSVKGRFTISRDNAKNTVYLQMNSLKPEDTAVYYCAAYWYYIKATTDSDARFDYWGQGTQVTVSS	high polyreactivity
QVQLVESGGGLVQAGGTLRLSCAASGRIFSYNAMGWYRQAPGKERELVAAITWRGGNTYYADSVKGRFTISRDNALNTVYLQMNSLQPEDTAVYYCAAQRGRWAPMYFWGQGTQVTVSS	high polyreactivity
QVQLVESGGGLVQAGGTLRLSCAASGRIFTHNAMGWYRQAPGKERELVAAITSGGRTTYADSVKGRFTISRDNAKNTVYLQMNSLKPEDTAVYYCNADTGLGSLDFDKRDYWGQGTQVNVSS	low polyreactivity
QVQLVESGGGLVQAGGTLRLSCAASGRIFTINAMGWYRQAPGKEREFVAAISGSGGTTYYADSVKGRFTISRDNAMNTVYLQMNSLKPEDTAVYYCAVSQSWYWYYASDYWGQGTQVTVSS	low polyreactivity
QVQLVESGGGLVQAGGTLRLSCAASGRIFVYNAMGWYRQAPGKERELVATITSGGSTYYSDSLKGRFTISRDNAKNTLYFQMNSLKPEDTAVYYCAARRWYVHYFAYGYWGQGTQVTVSS	low polyreactivity
QVQLVESGGGLVQAGGTLRLSCAASGRILYLNAMGWYRQAPGKEREFVAAISKSGGSTYYADSVKGRFTISRDNAMNSVYLQMNSLKPEDTAVYYCATRFRSAEYDYWGQGTQVTVSS	low polyreactivity
QVQLVESGGGLVQAGGTLRLSCAASGSIFGSYAMGWYRQAPGKERELVAAISGSGGRTYYADSVKGRFTISRDNAKNTVYVQMNSLKPEDTAVYYCAAAYPRVTYKYGYYWGQGTHVTVSS	high polyreactivity
QVQLVESGGGLVQAGGTLRLSCAASGSIFYYYAMGWYRQAPGKERELVDTISSSSGSTYYADSVKGRFTISRDNAKNTVYLQMISLKPEDTAVYYCAAPLPHRGYYEGYWGQRTQVTVSS	low polyreactivity
QVQLVESGGGLVQAGGTLRLSCAASGSTFGWYAMGWYRQAPGKVREFVAAIRGGGSSTYYADSVKWRFTISRDNAKNSVSLQKNSLKQEVTAVYYCAAVTSQLYGKRYYYWGQGTQGTVSS	high polyreactivity
QVQLVESGGGLVQAGGTLRLSCAASGSTFGYYAMGWYRQAPGKERELVAAISWRGGSTYYADSVKGRFTISRYNANNTVYLQMNSLKPEDTAVYYCAAPVGNYGSFDYWGQGTKVTVSS	low polyreactivity
